{"source": "the RNAGym collection of RNA variant scans (doi:10.1073/pnas.2313332121)", "parents": {"B1": {"name": "TPR 5TU (parent)", "chain": "GGAUCUUCUCGAUCUAACAAAAAAGACAAAUCUGCCACAAAGCUUGAGAGCAUCUUCGGAUGCAGAGGCGGCAGCCUUCGGUGGCGCGAUAGCGCCAACGUUCUCAACUAUGACACGCAAAACGCGUGCUCCGUUGAAUGGAGUUUAUCAUG"}}, "note": "Fewer inactive variants are shown than the library holds."}
{"variants_of": "B1", "assay": "polymerase ribozyme fitness, log enrichment relative to wild type (log ratio); higher = more active; in vitro selection for triplet polymerase activity", "how_it_was_run": "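Each subunit of a heterodimeric triplet polymerase ribozyme was mutagenized into a library by PCR, transcribed, and subjected to one round of in vitro selection, run in triplicate. Libraries were annealed with a biotinylated primer, the partner subunit and triplets, incubated frozen at −7 °C, and extended constructs were gel-excised, captured on streptavidin beads and recovered by RT-PCR. Input and output libraries were sequenced on Illumina, keeping genotypes with ≥10 input reads and ≥1 read per output. Fitness is log base 2 of genotype enrichment divided by wild-type enrichment, from inverse-variance-weighted replicate averages.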"}
{"variant": "A24C A28U A41C U78G A122G U127A", "polymerase ribozyme fitness (log ratio)": "≤ -4.2"}
{"variant": "A23G G92U", "polymerase ribozyme fitness (log ratio)": -3.31}
{"variant": "A24C G84A", "polymerase ribozyme fitness (log ratio)": "≤ -4.2"}
{"variant": "A23G C93U U101A G140U", "polymerase ribozyme fitness (log ratio)": -3.86}
{"variant": "A24C G42C G92U C125G", "polymerase ribozyme fitness (log ratio)": "≤ -4.2"}
{"variant": "A24C A37G G48C C63U U78G G88C U144G", "polymerase ribozyme fitness (log ratio)": "≤ -4.2"}
{"variant": "A22U U61A C96U", "polymerase ribozyme fitness (log ratio)": -0.569}
{"variant": "A22U G133C", "polymerase ribozyme fitness (log ratio)": -1.46}
{"variant": "A24C C27G U33G C38U A47U U82A G128U", "polymerase ribozyme fitness (log ratio)": "≤ -4.2"}
{"variant": "A23G G50C G86C A89G G92U A97U G141C", "polymerase ribozyme fitness (log ratio)": "≤ -4.2"}
{"variant": "A23C A26U U33G C76A U101G U145G", "polymerase ribozyme fitness (log ratio)": "≤ -4.2"}
{"variant": "A24C C85U A120C U146A", "polymerase ribozyme fitness (log ratio)": "≤ -4.2"}
{"variant": "A23U U56G G58C G74C G88U", "polymerase ribozyme fitness (log ratio)": "≤ -4.2"}
{"variant": "A23G G59U C95U", "polymerase ribozyme fitness (log ratio)": -3.41}
{"variant": "A23U A150G", "polymerase ribozyme fitness (log ratio)": "≤ -4.2"}
{"variant": "A23C C93U G141U", "polymerase ribozyme fitness (log ratio)": "≤ -4.2"}
{"variant": "A23G C32G G70A C85G", "polymerase ribozyme fitness (log ratio)": "≤ -4.2"}
{"variant": "A23U U44A U45A A66U C95U A120G", "polymerase ribozyme fitness (log ratio)": "≤ -4.2"}
{"variant": "A23U U109A", "polymerase ribozyme fitness (log ratio)": "≤ -4.2"}
{"variant": "A22U U56G", "polymerase ribozyme fitness (log ratio)": -0.902}
{"variant": "A24C U31A A52G", "polymerase ribozyme fitness (log ratio)": -3.62}
{"variant": "A23G A40G G50U C76A G84C", "polymerase ribozyme fitness (log ratio)": "≤ -4.2"}
{"variant": "A23C A41U G68U C93U A106G", "polymerase ribozyme fitness (log ratio)": "≤ -4.2"}
{"variant": "A23U C35G A73U G81A U109G", "polymerase ribozyme fitness (log ratio)": "≤ -4.2"}
{"variant": "A23U C85G G141A", "polymerase ribozyme fitness (log ratio)": "≤ -4.2"}
{"variant": "A22U G88C A147C", "polymerase ribozyme fitness (log ratio)": -4.19}
{"variant": "A23C C38A C51U U55C A73G G92U C131U A138C", "polymerase ribozyme fitness (log ratio)": "≤ -4.2"}
{"variant": "A23U U148C", "polymerase ribozyme fitness (log ratio)": -4.13}
{"variant": "A23U G86U A89G C105G C129U", "polymerase ribozyme fitness (log ratio)": "≤ -4.2"}
{"variant": "A23C U44C A64C G92C A97U", "polymerase ribozyme fitness (log ratio)": "≤ -4.2"}
{"variant": "A23U A24C G25U G94C A119C C123A G141C", "polymerase ribozyme fitness (log ratio)": "≤ -4.2"}
{"variant": "A23U C114U", "polymerase ribozyme fitness (log ratio)": -3.88}
{"variant": "A23G U44A U61A G70U C76G C93G G143C", "polymerase ribozyme fitness (log ratio)": "≤ -4.2"}
{"variant": "A22U U56A G84A G136C", "polymerase ribozyme fitness (log ratio)": -3.75}
{"variant": "A23C C32A U56A A60G C103A A110G G112C", "polymerase ribozyme fitness (log ratio)": "≤ -4.2"}
{"variant": "A24C U31C U33G U53A U78A G88U U134C", "polymerase ribozyme fitness (log ratio)": "≤ -4.2"}
{"variant": "A23C A39C C76A A97G G143C", "polymerase ribozyme fitness (log ratio)": -3.82}
{"variant": "A24C G34A C87A G126U", "polymerase ribozyme fitness (log ratio)": -4.18}
{"variant": "A23G C27U A29C C32A C36G C85U C95A U127G", "polymerase ribozyme fitness (log ratio)": -4.14}
{"variant": "A23U A64C G67A G81C", "polymerase ribozyme fitness (log ratio)": "≤ -4.2"}
{"variant": "A23G U56A C63A C85U C93U", "polymerase ribozyme fitness (log ratio)": "≤ -4.2"}
{"variant": "A22U U82A", "polymerase ribozyme fitness (log ratio)": 0.472}
{"variant": "A23G C27G A40U C75U G81C G94C U101A U109A", "polymerase ribozyme fitness (log ratio)": "≤ -4.2"}
{"variant": "A23U A52C U55A G81U G84A C99A U127C U145G", "polymerase ribozyme fitness (log ratio)": "≤ -4.2"}
{"variant": "A23U A26C G50A", "polymerase ribozyme fitness (log ratio)": "≤ -4.2"}
{"variant": "A23C C32U A64G G81A C87G C95U C96A A97G A138C G141U", "polymerase ribozyme fitness (log ratio)": "≤ -4.2"}
{"variant": "A23C U31G C108G A115G", "polymerase ribozyme fitness (log ratio)": "≤ -4.2"}
{"variant": "A23C C93A", "polymerase ribozyme fitness (log ratio)": -3.87}
{"variant": "A24C G81U G83C A110U C114G", "polymerase ribozyme fitness (log ratio)": "≤ -4.2"}
{"variant": "A22U G86A C93G C99A A138C", "polymerase ribozyme fitness (log ratio)": "≤ -4.2"}
{"variant": "A23U G50C A122C G141C", "polymerase ribozyme fitness (log ratio)": "≤ -4.2"}
{"variant": "A23G C114U", "polymerase ribozyme fitness (log ratio)": -3.53}
{"variant": "A23C C27U A30G C93G U101A U104G A107U", "polymerase ribozyme fitness (log ratio)": "≤ -4.2"}
{"variant": "A23C G58A C87U A91U", "polymerase ribozyme fitness (log ratio)": "≤ -4.2"}
{"variant": "A23G G124C A147G A150G", "polymerase ribozyme fitness (log ratio)": "≤ -4.2"}
{"variant": "A24C C27G A29U C57U G86C C103A", "polymerase ribozyme fitness (log ratio)": "≤ -4.2"}
{"variant": "A24C G68U C75G C76G A110G A121U", "polymerase ribozyme fitness (log ratio)": "≤ -4.2"}
{"variant": "A22U U144A", "polymerase ribozyme fitness (log ratio)": 0.777}
{"variant": "A23G A39U A47C U53G G86C A106G", "polymerase ribozyme fitness (log ratio)": "≤ -4.2"}
{"variant": "A22U U134A", "polymerase ribozyme fitness (log ratio)": -2.01}
{"variant": "A24G", "polymerase ribozyme fitness (log ratio)": -1.75}
{"variant": "A24C", "polymerase ribozyme fitness (log ratio)": -3.22}
{"variant": "A24C A29G C51U C95G C96U C114A U146C", "polymerase ribozyme fitness (log ratio)": "≤ -4.2"}
{"variant": "A23C U53A G83C A91G A147U", "polymerase ribozyme fitness (log ratio)": "≤ -4.2"}
{"variant": "A22U U55A", "polymerase ribozyme fitness (log ratio)": -0.43}
{"variant": "A22U C114A", "polymerase ribozyme fitness (log ratio)": -3.29}
{"variant": "A24G A29C A37G G46U C57U C76U A122U A138G U144G U151C", "polymerase ribozyme fitness (log ratio)": "≤ -4.2"}
{"variant": "A22U G50U C54U A66C A91G G92U A138G", "polymerase ribozyme fitness (log ratio)": "≤ -4.2"}
{"variant": "A22U G46C A73U", "polymerase ribozyme fitness (log ratio)": -3.61}
{"variant": "A23C C96G", "polymerase ribozyme fitness (log ratio)": -3.81}
{"variant": "A23G C54U C93U G128C", "polymerase ribozyme fitness (log ratio)": "≤ -4.2"}
{"variant": "A23G A24U C27G U55A G92U", "polymerase ribozyme fitness (log ratio)": -3.98}
{"variant": "A23G C57U", "polymerase ribozyme fitness (log ratio)": -2.27}
{"variant": "A24C C85A G143C U146A", "polymerase ribozyme fitness (log ratio)": "≤ -4.2"}
{"variant": "A23G A40G G42C", "polymerase ribozyme fitness (log ratio)": "≤ -4.2"}
{"variant": "A24C A29C A37U G59A U61G C87A C103G G117U", "polymerase ribozyme fitness (log ratio)": "≤ -4.2"}
{"variant": "A23U U90C C93U U102G A119U G124A G133U U134C", "polymerase ribozyme fitness (log ratio)": "≤ -4.2"}
{"variant": "A23U C27G A40G A47U G67A G83U G84A", "polymerase ribozyme fitness (log ratio)": "≤ -4.2"}
{"variant": "A23G U55A C87U", "polymerase ribozyme fitness (log ratio)": -2.98}
{"variant": "A23U U55A C57U G68U A73G G80C G94U U104C", "polymerase ribozyme fitness (log ratio)": "≤ -4.2"}
{"variant": "A22U U82A C96U", "polymerase ribozyme fitness (log ratio)": 0.375}
{"variant": "A23C A41C C75A G84A A115U G152A", "polymerase ribozyme fitness (log ratio)": "≤ -4.2"}
{"variant": "A23G C51U G65C G88C U111A C131G C149G", "polymerase ribozyme fitness (log ratio)": "≤ -4.2"}
{"variant": "A23U C43U G59C A60G G94C", "polymerase ribozyme fitness (log ratio)": "≤ -4.2"}
